The source of these data is US20220298475A1.

The target of assay [1] is LCMV Gp61-80 peptide … presented by MHC-II of dendritic cells (lymphocytic choriomeningitis virus (LCMV)). Nature of the assay: cell-based or functional assay.
In assay [2] the target is SIINFEKL N4 peptide (OVA257-264) presented on MHC-I H-2Kb of dendritic cells (mouse). Nature of the assay: cell-based or functional assay.

Chain of LCMV Gp61-80 peptide … presented by MHC-II of dendritic cells (lymphocytic choriomeningitis virus (LCMV)) (P07399 61-80): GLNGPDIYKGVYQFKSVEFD

In turn, “TCR of OT-II CD4+ T cells, specific for the OVA323-339 peptide” came in with a percentage of OT-II CD4+ T cells biotinylated by peptide-pulsed DC-FT in assay [1] of 1.68%.

Turning to “transgenic T cell receptor (TCR) of OT-I CD8+ T cells, specific for the SIINFEKL N4 of ovalbumin presented on MHC I”, in assay [2], the signal-to-background ratio of biotin labeling on OT-I CD8+ cells (iDC-FT pulsed with 10 nM peptide, flow cytometry) (ratio (signal:background)) worked out at 10; the signal-to-background ratio of biotin labeling on OT-I CD8+ cells (iDC-FT pulsed with 100 nM peptide, flow cytometry) (ratio (signal:background)) stood at 66; the signal/background ratio of biotinylated OT-I CD8+ T cells, DC-FT made by Method 1 (background: DC-enzyme primed with LCMV GP33-41) amounted to 592; the signal/background ratio of biotinylated OT-I CD8+ T cells, DC-NHS-FT made by Method 2 (background: DC-enzyme primed with LCMV GP33-41) was determined as 9.2. In assay [2], the streptavidin-APC+ OT-I CD8+ cells, DC-FT made by Method 1 was 77% and the streptavidin-APC+ OT-I CD8+ cells, DC-NHS-FT made by Method 2 came to 16%.
